Data as given in paper doi:10.1101/737510 (bioRxiv, 2019).

Target: DDA1 (human, UniProt Q9BW61 1-102)
Assay: crystal structure

binding result: binds
B1: DDB1(ΔBPB) (natural protein)
chain: MSYNYVVTAQKPTAVNGCVTGHFTSAEDLNLLIAKNTRLEIYVVTAEGLRPVKEVGMYGKIAVMELFRPKGESKDLLFILTAKYNACILEYKQSGESIDIITRAHGNVQDRIGRPSETGIIGIIDPECRMIGLRLYDGLFKVIPLDRDNKELKAFNIRLEELHVIDVKFLYGCQAPTICFVYQDPQGRHVKTYEVSLREKEFNKGPWKQENVEAEASMVIAVPEPFGGAIIIGQESITYHNGDKYLAIAPPIIKQSTIVCHNRVDPNGSRYLLGDMEGRLFMLLLEKEEQMDGTVTLKDLRVELLGETSIAECLTYLDNGVVFVGSRLGDSQLVKLNVDSNEQGSYVVAMETFTNLGPIVDMCVVDLERQGQGQLVTCSGAFKEGSLRIIRNGIGIHGTIDEIQKLHIRTVPLYESPRKICYQEVSQCFGVLSSRIEVQDTSGGTTALRPSASTQALSSSVSSSKLFSSSTAPHETSFGEEVEVHNLLIIDQHTFEVLHAHQFLQNEYALSLVSCKLGKDPNTYFIVGTAMVYPEEAEPKQGRIVVFQYSDGKLQTVAEKEVKGAVYSMVEFNGKLLASINSTVRLYEWTTEKELRTECNHYNNIMALYLKTKGDFILVGDLMRSVLLLAYKPMEGNFEEIARDFNPNWMSAVEILDDDNFLGAENAFNLFVCQKDSAATTDEERQHLQEVGLFHLGEFVNVFCHGSLVMQNLGETSTPTQGSVLFGTVNGMIGLVTSLSESWYNLLLDMQNRLNKVIKSVGKIEHSFWRSFHTERKTEPATGFIDGDLIESFLDISRPKMQEVVANLQYDDGSGMKREATADDLIKVVEELTRIH
